# Values of other authors in patent US8460910B2 (Illumina Cambridge Limited, priority 2003, dated 2013).
# B1: A486Y variant of Pfu DNA polymerase: Pfu DNA polymerase with A486Y mutation (Evans et al. 2000) (protein, UniProt P61875 1-775, looked up, variant A486Y)
# DNA polymerase: MILDVDYITEEGKPVIRLFKKENGKFKIEHDRTFRPYIYALLRDDSKIEEVKKITGERHGKIVRIVDVEKVEKKFLGKPITVWKLYLEHPQDVPTIREKVREHPAVVDIFEYDIPFAKRYLIDKGLIPMEGEEELKILAFDIETLYHEGEEFGKGPIIMISYADENEAKVITWKNIDLPYVEVVSSEREMIKRFLRIIREKDPDIIVTYNGDSFDFPYLAKRAEKLGIKLTIGRDGSEPKMQRIGDMTAVEVKGRIHFDLYHVITRTINLPTYTLEAVYEAIFGKPKEKVYADEIAKAWESGENLERVAKYSMEDAKATYELGKEFLPMEIQLSRLVGQPLWDVSRSSTGNLVEWFLLRKAYERNEVAPNKPSEEEYQRRLRESYTGGFVKEPEKGLWENIVYLDFRALYPSIIITHNVSPDTLNLEGCKNYDIAPQVGHKFCKDIPGFIPSLLGHLLEERQKIKTKMKETQDPIEKILLDYRQKYIKLLANSFYGYYGYAKARWYCKECAESVTAWGRKYIELVWKELEEKFGFKVLYIDTDGLYATIPGGESEEIKKKALEFVKYINSKLPGLLELEYEGFYKRGFFVTKKRYAVIDEEGKVITRGLEIVRRDWSEIAKETQARVLETILKHGDVEEAVRIVKEVIQKLANYEIPPEKLAIYEQITRPLHEYKAIGPHVAVAKKLAAKGVKIKPGMVIGYIVLRGDGPISNRAILAEEYDPKKHKYDAEYYIENQVLPAVLRILEGFGYRKEDLRYQKTRQVGLTSWLNIKKS
# Tested on: ddNTPs
# Conditions: cited from earlier work
molecule,measurement,value
B1,improvement of ratio of ddNTP/dNTP in sequencing ladders compared to wild type,150 fold
